According to PMC4878873:

Key:
[1] = molecular target: Cul1^d-N8/Rbx1^∆RING (human) (UniProt Q13616)
[2] = molecular target: Cul1^d-N8/Rbx1^∆RING (human) (UniProt Q13616); remark: listed apart in the source
CUL4B = assay: anti-Flag immunoprecipitation, SILAC mass spectrometry; details: HEK293T; mutant in light medium, wild type in heavy medium; read off a plot
Elongin B = assay: as above; details: HEK293T; mutant in light medium, wild type in heavy medium; read off a plot
SKP1 = assay: as above; details: HEK293T; mutant in light medium, wild type in heavy medium; read off a plot
CUL4A = assay: as above; details: HEK293T; mutant in light medium, wild type in heavy medium; read off a plot
Elongin C = assay: as above; details: HEK293T; mutant in light medium, wild type in heavy medium; read off a plot
CUL2 = assay: as above; details: HEK293T; mutant in light medium, wild type in heavy medium; read off a plot
DDB1 = assay: as above; details: HEK293T; mutant in light medium, wild type in heavy medium; read off a plot
RBX1 = assay: as above; details: HEK293T; mutant in light medium, wild type in heavy medium; read off a plot
CUL1 = assay: as above; details: HEK293T; mutant in light medium, wild type in heavy medium; read off a plot
CUL3 = assay: as above; details: HEK293T; mutant in light medium, wild type in heavy medium; read off a plot
[3] = molecular target: COP9-Signalosome (CSN), wild type (human) (UniProt Q13098)

Chain of unlabeled Cul1/Rbx1 (Q13616 whole entry): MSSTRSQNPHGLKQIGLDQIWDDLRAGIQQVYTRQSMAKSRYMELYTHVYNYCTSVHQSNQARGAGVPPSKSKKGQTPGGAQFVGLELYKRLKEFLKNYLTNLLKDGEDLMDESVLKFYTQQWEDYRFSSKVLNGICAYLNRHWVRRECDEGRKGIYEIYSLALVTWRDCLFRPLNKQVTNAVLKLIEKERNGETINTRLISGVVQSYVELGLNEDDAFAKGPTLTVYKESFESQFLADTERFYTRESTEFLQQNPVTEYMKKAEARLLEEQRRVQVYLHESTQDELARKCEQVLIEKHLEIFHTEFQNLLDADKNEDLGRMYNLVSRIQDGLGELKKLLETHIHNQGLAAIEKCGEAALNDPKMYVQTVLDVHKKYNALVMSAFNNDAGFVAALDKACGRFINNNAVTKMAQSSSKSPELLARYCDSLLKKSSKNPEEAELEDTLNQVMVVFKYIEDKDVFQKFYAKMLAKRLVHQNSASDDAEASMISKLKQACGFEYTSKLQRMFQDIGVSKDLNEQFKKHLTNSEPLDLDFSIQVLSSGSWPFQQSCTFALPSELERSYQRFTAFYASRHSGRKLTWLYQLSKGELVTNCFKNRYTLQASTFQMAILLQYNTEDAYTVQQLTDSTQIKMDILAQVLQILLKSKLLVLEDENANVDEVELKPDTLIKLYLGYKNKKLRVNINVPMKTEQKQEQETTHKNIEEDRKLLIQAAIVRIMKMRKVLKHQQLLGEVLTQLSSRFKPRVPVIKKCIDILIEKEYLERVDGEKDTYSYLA
Chain of unlabeled Cul1/Rbx1 (P62877 whole entry): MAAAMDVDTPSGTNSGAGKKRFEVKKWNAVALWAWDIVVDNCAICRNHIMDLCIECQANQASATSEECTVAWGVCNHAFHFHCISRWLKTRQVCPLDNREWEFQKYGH

“COP9-Signalosome (CSN), wild type (from UniProt Q13098 1-491; P61201 1-443; Q9UNS2 1-423; Q9BT78 1-406; Q92905 1-334; Q7L5N1 1-327; Q9H9Q2 1-264; Q99627 1-209) (complex)” was tested. Which KM of deneddylation of Cul1-N8/Rbx1^∆RING (with the sortase sequence, not dansylated) by CSN [1] did it give?
Its KM of deneddylation of Cul1-N8/Rbx1^∆RING (with the sortase sequence, not dansylated) by CSN is 5 nM.

With “CSN^5E76A (from UniProt Q13098 1-491; P61201 1-443; Q9UNS2 1-423; Q9BT78 1-406; Q92905 1-334; Q7L5N1 1-327; Q9H9Q2 1-264; Q99627 1-209) (complex)” as the substance, how does the Kd [2] read?
Its Kd is 13 nM.

For “Flag-tagged wild type Csn5 (from UniProt Q92905) T103I”, which ratio to parent (CUL4B) is on record?
Its ratio to parent is 0.63.

What about the ratio to parent (Elongin B) of the same substance?
Its ratio to parent is 0.85.

What about the ratio to parent (SKP1) of the same substance?
The ratio to parent was 0.88.

And the ratio to parent (CUL4A)?
Its ratio to parent is 0.57.

What about the ratio to parent (Elongin C) of the same substance?
The ratio to parent was 0.8.

And the ratio to parent (CUL2)?
Its ratio to parent is 0.83.

What about the ratio to parent (DDB1) of the same substance?
The ratio to parent was 0.78.

And the ratio to parent (RBX1)?
The ratio to parent was 0.92.

What about the ratio to parent (CUL1) of the same substance?
The ratio to parent was 0.9.

What about the ratio to parent (CUL3) of the same substance?
The ratio to parent was 0.75.

How did the IC50 [3] turn out when “unlabeled Cul1/Rbx1 (from UniProt Q13616 1-776; P62877 1-108) (complex)” was run?
Its IC50 is 390 nM.
